Measurements taken from patent US6406883.

Target: human laminin (immobilized; Gibco BRL) (human) (UniProt P25391)
Assay: cell-based or functional assay
[1] = scale: % of values obtained for the wildtype strain

## Lmb on the surface of Streptococcus agalactiae (GBS) wildtype strain O90R
[1]
  adherence of FITC-labelled lmb mutant lmb-k1 to immobilized laminin, relative to wildtype strain O90R: 25
  adherence of FITC-labelled lmb mutant lmb-k2 to immobilized laminin, relative to wildtype strain O90R: 25

## Recombinant Lmb protein harboring six consecutive histidin residues at the C-terminus (amino acid 19-306, expressed from pET21a::lmb in E. coli BL21(DE3))
  adherence of FITC-labelled O90R wildtype bacteria to laminin preincubated with recombinant Lmb (100 ug/ml) (% of the initial values): 60
